Reference: article PMC7368063, “An FGF15/19-TFEB regulatory loop controls hepatic cholesterol and bile acid homeostasis”

Target: TFEB (rhTFEB) (human, UniProt P19484 1-476)
Test: EMSA; EMSA kit with SYBR green (Thermo Fisher), 5 pmol annealed probe, 200 ng rhTFEB; buffer, salt, pH and temperature not stated
Settings: protein: commercial; chain copies: 2

TFEB (rhTFEB), sequence (P19484 whole entry): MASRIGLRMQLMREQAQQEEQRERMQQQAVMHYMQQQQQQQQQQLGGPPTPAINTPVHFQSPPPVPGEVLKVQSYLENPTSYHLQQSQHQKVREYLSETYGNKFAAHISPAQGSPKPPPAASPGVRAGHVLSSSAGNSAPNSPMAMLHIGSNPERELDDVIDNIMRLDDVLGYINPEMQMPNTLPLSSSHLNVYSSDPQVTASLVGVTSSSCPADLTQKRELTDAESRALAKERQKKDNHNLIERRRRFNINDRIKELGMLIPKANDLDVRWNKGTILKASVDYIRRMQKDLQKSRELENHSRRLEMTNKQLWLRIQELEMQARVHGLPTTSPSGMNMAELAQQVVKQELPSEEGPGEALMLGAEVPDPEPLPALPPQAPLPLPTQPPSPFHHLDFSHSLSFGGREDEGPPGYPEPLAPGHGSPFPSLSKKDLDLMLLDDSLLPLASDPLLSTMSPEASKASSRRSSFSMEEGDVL

B1: NPC2 CLEAR probe (positive control) (dsDNA)
DNA 1: GCGCGGGCGGGCCTCAGCTGTGGTTACTGGTGACAGGTCGCCTGA
DNA 2: TCAGGCGACCTGTCACCAGTAACCACAGCTGAGGCCCGCCCGCGC
B1: binds.
